Data published in paper PMC3410491.

Legend:
[1] = target: Chara myosin heavy chain (Chara corallina (Chara australis) (endogenous in internodal cells)); assay: SEC; partially purified Chara myosin on Superdex 200HR in 50 mM Tris-HCl pH 8.0, 2 mM MgCl2, 1 mM EGTA, 4 mM ATP, 1 mM DTT; peak fraction No. 20 concentrated and run on SDS-PAGE, stained with coomassie brilliant blue; molar ratios roughly estimated
[2] = target: Chara myosin heavy chain (Chara corallina (Chara australis) (endogenous in internodal cells))
[3] = target: Chara myosin heavy chain (Chara corallina (Chara australis) (endogenous in internodal cells)); remark: listed apart in the source

Row | stoichiometry N (molar ratio to the heavy chain) [1] | sliding velocity of F-actin on Chara myosin in the in vitro motility assay; increase over the standard buffer on adding 0.1 mM Ca++ and 0.1 mg/ml calmodulin; reversible on washing out [2] | sliding velocity of F-actin on Chara myosin in the in vitro motility assay; increase over the standard buffer on adding 0.1 mg/ml calmodulin [2] | actin activated ATPase of column purified Chara myosin; increase on adding both Ca++ and calmodulin [3] | actin activated ATPase of column purified Chara myosin; increase on adding calmodulin [3] | Substance
1 | 0.7 | – | – | – | – | 20 kDa polypeptide of Chara myosin (natural protein)
2 | 2.5 | – | – | – | – | 18 kDa polypeptide of Chara myosin (natural protein)
3 | – | 35% | 24% | 91% | 24% | bovine calmodulin (from UniProt P62157 1-149) (natural protein)
